Experimental data: article PMC12554172, “Systematic analysis of the RGS2 degron reveals characteristics of substrate recognition by the F-box protein FBXO44” (The Journal of Biological Chemistry, 2025)

Each substance was assayed against T1, FBXO44^FBA (Homo sapiens, UniProt Q9H4M3) (assay: Peptide microarray (PEPperPRINT), FLAG-FBXO44^FBA binding). Conditions: Table S1; RGS2^5–16 single-residue substitution; 2 μg/ml FBXO44^FBA overnight at 4 °C, PBS 0.005% Tween pH 7.4, anti-FLAG DyLight800 fluorescence; three independent experiments with three technical replicates each.
T1 construct: we expressed and purified only this domain for all in vitro studies; 6xHis (N, cleaved yes); MBP (N, cleaved yes); made in house; host or cells: Escherichia coli Rosetta BL21 (λDE3)
T1 sequence (Q9H4M3 71-252 limits assumed): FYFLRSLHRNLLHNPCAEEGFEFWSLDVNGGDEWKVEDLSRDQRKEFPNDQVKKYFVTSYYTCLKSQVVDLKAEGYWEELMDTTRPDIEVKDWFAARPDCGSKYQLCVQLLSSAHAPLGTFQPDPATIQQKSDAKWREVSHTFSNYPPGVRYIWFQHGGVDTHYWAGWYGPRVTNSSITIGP
Description: To do so, we utilized a custom peptide microarray (PEPperPRINT GmbH). The design of this array was twofold: (1) substitution at each position with every other natural eukaryotic amino acid; (2) truncation of the peptide from the C terminus. We assessed the binding of FLAG-FBXO44^FBA to the array utilizing fluorescence immunoreactivity corresponding to the amount of FLAG-FBXO44^FBA bound. […] Substitutions at Asp^12 were not only tolerated but also seemed to improve binding in every case (Fig. 3B). This, combined with the fact that substituting any residue in His^11–Met^16 with Arg, and in most cases with Lys, improved FBXO44^FBA binding, indicating the presence of negative charges at the binding interface.
Figure 2 Systematic mutation of the RGS2 degron alters FBXO44^FBA binding. A custom microarray (PEPperPRINT) was designed where each position of the RGS2^5–16 peptide was substituted for each natural amino acid. We also included truncated peptides on the array. This was incubated with purified FBXO44^FBA and probed with α-FLAG. A, a representative scan of a peptide microarray (top) and a truncated peptide (bottom). B, heatmap of mean fluorescence of quantified microarray scans. The scale represents the mean fluorescence in percentage points across all replicates, normalized to the signal obtained with the original residue at each position. C, heatmap of standard deviation of quantified microarray scans. The scale represents the standard deviation in percentage points across all replicates. […] Residues are color-coded based on properties: blue, positive charge; red, negative charge; orange, uncharged polar; green, hydrophobic; yellow, Cys (C); bright green, Pro (P); and black, Gly (G). […] Results of three independent experiments with three technical replicates each. For a statistical significance summary, see Table S1. FBXO44, F-box only protein 44; RGS2, regulator of G protein signaling 2.
Figure 3 Effects of RGS2^5–16 peptide residue changes on FBXO44^FBA binding. Data are presented as % FLAG immunoreactivity, as compared with the parent peptide residue. […] The original residue is marked in each graph with a vertical dotted line. Boxes extend from the 25th to 75th percentile with a line marking the median. Whiskers extend to the minimum and maximum. Results of three independent experiments with three technical replicates each. Data were analyzed by two-way ANOVA, with Tukey's post hoc test for pairwise comparison (simple effect within columns). Statistical significance is summarized in Table S1 and color-coded according to the legend. FBXO44, F-box only protein 44; RGS2, regulator of G protein signaling 2.
The microarray slide was seated into the incubation tray according to PEPperPRINT's instructions. The array well was then incubated in washing buffer (PBS) with 0.005% Tween (Sigma; P1379, pH 7.4) at room temperature for 15 min on an orbital shaker. Washing buffer was aspirated, and the array was then incubated with Rockland blocking buffer at room temperature for 30 min on an orbital shaker. Blocking buffer was then aspirated, and the array was incubated in staining buffer (washing buffer with 10% Rockland blocking buffer) at room temperature for 15 min on an orbital shaker. Staining buffer was aspirated, and purified FBXO44 FBA domain diluted to 2 μg/ml in staining buffer was added. The array was then placed on an orbital shaker overnight at 4 °C. The FBA domain solution was removed, and an array was washed three times with washing buffer. After the third array was incubated in staining buffer for 15 min at 4 °C on an orbital shaker. The array was then incubated with antibody dilution (anti-FLAG DyLight800 and anti-HA DyLight680, both diluted 1:2000 in staining buffer) for 45 min at 4° C on an orbital shaker. The array was then washed three times with washing buffer. […]

Point of comparison: “C13S: array RGS2^5–16 peptide, C13 substituted by S (MFLAVQHDSRPM; UniProt P41220 5-16, looked up, variant C13S)”, “Mean % difference from parent peptide (FLAG immunoreactivity)” value -87.05%. Against it:
- D12V: array RGS2^5–16 peptide, D12 substituted by V (MFLAVQHVCRPM; UniProt P41220 5-16, looked up, variant D12V) — higher, 40.66%
- D12I: array RGS2^5–16 peptide, D12 substituted by I (MFLAVQHICRPM; UniProt P41220 5-16, looked up, variant D12I) — higher, 42.93%
- R14W: array RGS2^5–16 peptide, R14 substituted by W (MFLAVQHDCWPM) — higher, 32.54%
- M16R: array RGS2^5–16 peptide, M16 substituted by R (MFLAVQHDCRPR; UniProt P41220 5-16, looked up, variant M16R) — higher, 101.4%
- M16A: array RGS2^5–16 peptide, M16 substituted by A (MFLAVQHDCRPA; UniProt P41220 5-16, looked up, variant M16A) — higher, -33.89%
- M16G: array RGS2^5–16 peptide, M16 substituted by G (MFLAVQHDCRPG; UniProt P41220 5-16, looked up, variant M16G) — higher, -27.86%
- C13N: array RGS2^5–16 peptide, C13 substituted by N (MFLAVQHDNRPM; UniProt P41220 5-16, looked up, variant C13N) — higher, -85.38%
- C13R: array RGS2^5–16 peptide, C13 substituted by R (MFLAVQHDRRPM; UniProt P41220 5-16, looked up, variant C13R) — higher, 35.61%
- C13L: array RGS2^5–16 peptide, C13 substituted by L (MFLAVQHDLRPM; UniProt P41220 5-16, looked up, variant C13L) — lower, -88.83%
- M16K: array RGS2^5–16 peptide, M16 substituted by K (MFLAVQHDCRPK; UniProt P41220 5-16, looked up, variant M16K) — higher, 38.94%
- M16C: array RGS2^5–16 peptide, M16 substituted by C — higher, 30.03%
- D12G: array RGS2^5–16 peptide, D12 substituted by G (MFLAVQHGCRPM; UniProt P41220 5-16, looked up, variant D12G) — higher, 28.74%
- C13W: array RGS2^5–16 peptide, C13 substituted by W (MFLAVQHDWRPM; UniProt P41220 5-16, looked up, variant C13W) — higher, -46.69%
- C13G: array RGS2^5–16 peptide, C13 substituted by G (MFLAVQHDGRPM; UniProt P41220 5-16, looked up, variant C13G) — lower, -89.67%
- D12Q: array RGS2^5–16 peptide, D12 substituted by Q (MFLAVQHQCRPM; UniProt P41220 5-16, looked up, variant D12Q) — higher, 59.62%
- R14A: array RGS2^5–16 peptide, R14 substituted by A (MFLAVQHDCAPM) — higher, -27.71%
- P15C: array RGS2^5–16 peptide, P15 substituted by C — higher, 26.71%
- C13D: array RGS2^5–16 peptide, C13 substituted by D (MFLAVQHDDRPM; UniProt P41220 5-16, looked up, variant C13D) — higher, -75.39%
- D12T: array RGS2^5–16 peptide, D12 substituted by T (MFLAVQHTCRPM; UniProt P41220 5-16, looked up, variant D12T) — higher, 32.23%
- D12M: array RGS2^5–16 peptide, D12 substituted by M (MFLAVQHMCRPM; UniProt P41220 5-16, looked up, variant D12M) — higher, 42.32%
- D12S: array RGS2^5–16 peptide, D12 substituted by S (MFLAVQHSCRPM; UniProt P41220 5-16, looked up, variant D12S) — higher, 59.59%
- H11R: array RGS2^5–16 peptide, H11 substituted by R (MFLAVQRDCRPM) — higher, 41.19%
- C13P: array RGS2^5–16 peptide, C13 substituted by P (MFLAVQHDPRPM; UniProt P41220 5-16, looked up, variant C13P) — higher, -84.68%
- C13A: array RGS2^5–16 peptide, C13 substituted by A (MFLAVQHDARPM; UniProt P41220 5-16, looked up, variant C13A) — higher, -72.59%
- C13V: array RGS2^5–16 peptide, C13 substituted by V (MFLAVQHDVRPM; UniProt P41220 5-16, looked up, variant C13V) — lower, -88.12%
- D12Y: array RGS2^5–16 peptide, D12 substituted by Y (MFLAVQHYCRPM; UniProt P41220 5-16, looked up, variant D12Y) — higher, 31.8%
- D12C: array RGS2^5–16 peptide, D12 substituted by C — higher, 43.97%
- M16D: array RGS2^5–16 peptide, M16 substituted by D (MFLAVQHDCRPD; UniProt P41220 5-16, looked up, variant M16D) — higher, 31.28%
- C13I: array RGS2^5–16 peptide, C13 substituted by I (MFLAVQHDIRPM; UniProt P41220 5-16, looked up, variant C13I) — lower, -87.24%
- D12N: array RGS2^5–16 peptide, D12 substituted by N (MFLAVQHNCRPM; UniProt P41220 5-16, looked up, variant D12N) — higher, 55.82%

Same assay, conditions: versus parent RGS2^5–16 peptide; 2 μg/ml FBXO44^FBA overnight at 4 °C; fluorescence

In the case of “R14W: array RGS2^5–16 peptide, R14 substituted by W (MFLAVQHDCWPM)”, the “FBXO44^FBA binding in peptide microarray (in words)” value (shortened to “FBXO44^FBA binding”) is reported as “modest effects, with only one or two substitutions for each reaching significance”.
In the case of “R14A: array RGS2^5–16 peptide, R14 substituted by A (MFLAVQHDCAPM)”, the “FBXO44^FBA binding” value is reported as “modest effects, with only one or two substitutions for each reaching significance”.
With “H11R: array RGS2^5–16 peptide, H11 substituted by R (MFLAVQRDCRPM)” the “FBXO44^FBA binding” value was “modest effects, with only one or two substitutions for each reaching significance”.
